{
  "source": "patent EP1275713A1",
  "binders": {"B1": {"name": "sCD14(1-307)S286C (receptor)", "chain": "TTPEPCELDDEDFRCVCNFSEPQPDWSEAFQCVSAVEVEIHAGGLNLEPFLKRVDADADPRQYADTVKALRVRRLTVGAAQVPAQLLVGALRVLAYSRLKELTLEDLKITGTMPPLPLEATGLALSSLRLRNVSWATGRSWLAELQQWLKPGLKVLSIAQAHSPAFSCEQVRAFPALTSLDLSDNPGLGERGLMAALCPHKFPAIQNLALRNTGMETPTGVCAALAAAGVQPHSLDLSHNSLRATVNPSAPRCMWSSALNSLNLSFAGLEQVPKGLPAKLRVLDLCCNRLNRAPQPDELPEVDNLTL"}},
  "target": "human TLR4 (human) (UniProt O00206)",
  "sequence (O00206 24-839)": "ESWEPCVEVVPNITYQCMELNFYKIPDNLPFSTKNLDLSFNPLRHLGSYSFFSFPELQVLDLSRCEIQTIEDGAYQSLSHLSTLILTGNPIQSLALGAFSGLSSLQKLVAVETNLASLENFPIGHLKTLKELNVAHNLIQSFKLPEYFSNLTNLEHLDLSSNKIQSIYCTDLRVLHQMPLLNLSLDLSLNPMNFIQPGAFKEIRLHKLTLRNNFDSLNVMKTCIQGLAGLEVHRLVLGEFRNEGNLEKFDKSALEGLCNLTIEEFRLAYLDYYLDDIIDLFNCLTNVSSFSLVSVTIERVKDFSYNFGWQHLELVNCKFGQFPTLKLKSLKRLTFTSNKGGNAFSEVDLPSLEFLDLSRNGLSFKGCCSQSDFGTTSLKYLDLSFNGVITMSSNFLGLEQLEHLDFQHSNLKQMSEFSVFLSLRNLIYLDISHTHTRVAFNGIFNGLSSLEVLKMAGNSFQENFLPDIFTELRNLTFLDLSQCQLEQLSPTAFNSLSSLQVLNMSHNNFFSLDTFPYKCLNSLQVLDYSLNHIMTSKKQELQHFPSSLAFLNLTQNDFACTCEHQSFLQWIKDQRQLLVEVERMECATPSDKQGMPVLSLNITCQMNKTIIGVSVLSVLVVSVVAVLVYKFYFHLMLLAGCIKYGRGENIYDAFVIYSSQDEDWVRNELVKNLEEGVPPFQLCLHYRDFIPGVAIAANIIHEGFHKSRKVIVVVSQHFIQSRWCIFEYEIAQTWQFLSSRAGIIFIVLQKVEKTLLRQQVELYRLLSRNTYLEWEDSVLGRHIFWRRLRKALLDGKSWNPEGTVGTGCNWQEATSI",
  "assay": "BIACORE 3000: TLR4-COS cells (1.7 × 10^5 cells/mL) premixed with 33 µg/mL sCD14(1-307)S286C for 20 minutes, injected over immobilized sCD14(1-356)/LPS",
  "data": [
    {"binder": "B1", "values": [
      {"measurement": "suppression of binding", "value": 100, "unit": "%"}
    ]}
  ]
}
